{"source": "patent US7128910B2", "about": "“Moraxella catarrahalis outer membrane protein-106 polypeptide, gene sequences and uses thereof” (priority 1996, dated 2006)", "test_system": "M. catarrhalis ATCC 49143", "assay": "Proteolytic digestion of intact cells followed by hemagglutination test", "type": "cell-based, Moraxella catarrhalis", "conditions": "intact cells digested 1 hour at room temperature", "procedure": "All proteases were obtained from Sigma Chemicals (St. Louis, Mo.). Immediately following the protease treatment, cells were washed once in PBS and resuspended in 1 ml of PBS and the hemagglutinating activity was tested. Additionally, protease-treated bacterial cells were extracted with octyl glucoside so the outer membrane proteins could be resolved to identify specific proteins that may have been digested by the proteases.", "data": [{"molecule": "proteinase K: Protease from Sigma Chemicals (protein, UniProt P06873 106-384, looked up) Proteinase K: AAQTNAPWGLARISSTSPGTSTYYYDESAGQGSCVYVIDTGIEASHPEFEGRAQMVKTYYYSSRDGNGHGTHCAGTVGSRTYGVAKKTQLFGVKVLDDNGSGQYSTIIAGMDFVASDKNNRNCPKGVVASLSLGGGYSSSVNSAAARLQSSGVMVAVAAGNNNADARNYSPASEPSVCTVGASDRYDRRSSFSNYGSVLDIFGPGTSILSTWIGGSTRSISGTSMATPHVAGLAAYLMTLGKTTAASACRYIADTANKGDLSNIPFGTVNLLAYNNYQA", "values": [{"measurement": "Effect of protease treatment on hemagglutination activity", "value": "destroyed the hemagglutination activity"}]}]}
